The target in test [1] is H1N1 pseudotyped lentiviral particles (H1 and N1 from swine H1N1 A/California/04/09) (influenza A virus H1N1 A/California/04/09). As to the kind of experiment: cell-based or functional assay.
In test [2] the target is H3N2 pseudotyped lentiviral particles (H3 from A/Denmark/70/03, N2 from A/Texas/50/2012) (influenza A virus H3N2 A/Denmark/70/03; influenza A virus H3N2 A/Texas/50/2012). Description: cell-based or functional assay.

The text below walks through data of US20210145935A1.

B1: human complement factor H purified from human plasma, P08603 19-1231 (protein)
chain: EDCNELPPRRNTEILTGSWSDQTYPEGTQAIYKCRPGYRSLGNVIMVCRKGEWVALNPLRKCQKRPCGHPGDTPFGTFTLTGGNVFEYGVKAVYTCNEGYQLLGEINYRECDTDGWTNDIPICEVVKCLPVTAPENGKIVSSAMEPDREYHFGQAVRFVCNSGYKIEGDEEMHCSDDGFWSKEKPKCVEISCKSPDVINGSPISQKIIYKENERFQYKCNMGYEYSERGDAVCTESGWRPLPSCEEKSCDNPYIPNGDYSPLRIKHRTGDEITYQCRNGFYPATRGNTAKCTSTGWIPAPRCTLKPCDYPDIKHGGLYHENMRRPYFPVAVGKYYSYYCDEHFETPSGSYWDHIHCTQDGWSPAVPCLRKCYFPYLENGYNQNYGRKFVQGKSIDVACHPGYALPKAQTTVTCMENGWSPTPRCIRVKTCSKSSIDIENGFISESQYTYALKEKAKYQCKLGYVTADGETSGSITCGKDGWSAQPTCIKSCDIPVFMNARTKNDFTWFKLNDTLDYECHDGYESNTGSTTGSIVCGYNGWSDLPICYERECELPKIDVHLVPDRKKDQYKVGEVLKFSCKPGFTIVGPNSVQCYHFGLSPDLPICKEQVQSCGPPPELLNGNVKEKTKEEYGHSEVVEYYCNPRFLMKGPNKIQCVDGEWTTLPVCIVEESTCGDIPELEHGWAQLSSPPYYYGDSVEFNCSESFTMIGHRSITCIHGVWTQLPQCVAIDKLKKCKSSNLIILEEHLKNKKEFDHNSNIRYRCRGKEGWIHTVCINGRWDPEVNCSMAQIQLCPPPPQIPNSHNMTTTLNYRDGEKVSVLCQENYLIQEGEEITCKDGRWQSIPLCVEKIPCSQPPQIEHGTINSSRSSQESYAHGTKLSYTCEGGFRISEENETTCYMGKWSSPPQCEGLPCKSPPEISHGVVAHMSDSYQYGEEVTYKCFEGFGIDGPAIAKCLGEKWSHPPSCIKTDCLSLPSFENAIPMGEKKDVYKAGEQVTYTCATYYKMDGASNVTCINSRWTGRPTCRDTSCVNPPTVQNAYIVSRQMSKYPSGERVRYQCRSPYEMFGDEEVMCLNGNWTEPPQCKDSTGKCGPPPPIDNGDITSFPLSVYAPASSVEYQCQNLYQLEGNKRITCRNGQWSEPPKCLHPCVISREIMENYNIALRWTAKQKLYSRTGESVEFVCKRGYRLSSRSHTLRTTCWDGKLEYPTCAKR
For the molecule B1, the values for the luciferase reporter activity of transduced MDCK cells, 40 µg/ml protein in test [1] and in test [2] were 25 % reduction and 50 % increase, respectively.
